Measured values from patent US20250270339A1 (Alector, published 2025).

Key:
[1] = target: T1, huTfR Apical Domain-Avi-His (human, biotin on the Avi tag (BirA) where captured on streptavidin); assay: ELISA OD450, supernatant
T1 construct: also called huTfR apical Avi-His; hTfR Apical
T1 chain: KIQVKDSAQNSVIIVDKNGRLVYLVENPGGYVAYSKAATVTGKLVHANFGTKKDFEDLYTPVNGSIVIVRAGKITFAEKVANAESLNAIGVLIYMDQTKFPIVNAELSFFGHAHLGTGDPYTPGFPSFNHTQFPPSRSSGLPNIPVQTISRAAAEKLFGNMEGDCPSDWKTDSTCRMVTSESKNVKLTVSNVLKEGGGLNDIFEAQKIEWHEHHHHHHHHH
Description: Hybridoma culture supernatants from 319 hybridomas obtained as described above were screened for their ability to bind Avi-His-tagged huTfR ECD, huTfR apical domain, and muTfR ECD (as described in Example 1) as compared to binding to an irrelevant Avi-His-tagged control protein. Briefly, 96-well polystyrene plates were coated with 5 μg/ml of streptavidin (Thermo Fisher, Cat #PI21125) in coating buffer (0.05M carbonate buffer, pH 9.6, Sigma, Cat #C3041) overnight at 4° C. Coated plates were then blocked with ELISA diluent (PBS+0.5% BSA+0.05% Tween20) for one hour. Blocking buffer was removed and Avi-His-tagged human TfR, human TfR apical domain, mouse TfR and an irrelevant Avi-His-tagged protein were added at 1 μg/ml in ELISA diluent and captured for 1 hour at room temperature. After washing three times with 300 μl of PBST (PBS+0.05% Tween20, Thermo 28352), the hybridoma cell culture supernatants were added (50 μl/well) to each well. After 30 minutes of incubation at room temperature, the plates were washed three times with 300 μl of PBST. Anti-mouse IgG Fc-HRP or anti-rat IgG Fc-HRP (Jackson Immunoresearch, Cat #115-035-071 and 112-036-071, respectively) secondary antibodies were diluted 1:5000 in ELISA diluent, added to each well at 50 μl/well, and incubated for 30 minutes at room temperature with shaking. After a final set of washes (3×300 μl in PBST), 50 μl/well of BioFx TMB substrate (Surmodics, Cat #TMBW-1000-01) was added to the wells. The reaction was then quenched after 5-10 mins with 50 μl/well of 2N sulfuric acid. The plates were read for absorbance at 450 nm on a SpectraMax M5 (Molecular Devices, Sunnyvale, CA) using SoftMax Pro software.

[2] = target: T2, Full length human TfR on CHO cells (human, UniProt P02786 1-760); assay: FACS MFI, supernatant
T2 construct: also called CHO + huTfR; CHO + hTfR
T2 sequence (P02786 whole entry): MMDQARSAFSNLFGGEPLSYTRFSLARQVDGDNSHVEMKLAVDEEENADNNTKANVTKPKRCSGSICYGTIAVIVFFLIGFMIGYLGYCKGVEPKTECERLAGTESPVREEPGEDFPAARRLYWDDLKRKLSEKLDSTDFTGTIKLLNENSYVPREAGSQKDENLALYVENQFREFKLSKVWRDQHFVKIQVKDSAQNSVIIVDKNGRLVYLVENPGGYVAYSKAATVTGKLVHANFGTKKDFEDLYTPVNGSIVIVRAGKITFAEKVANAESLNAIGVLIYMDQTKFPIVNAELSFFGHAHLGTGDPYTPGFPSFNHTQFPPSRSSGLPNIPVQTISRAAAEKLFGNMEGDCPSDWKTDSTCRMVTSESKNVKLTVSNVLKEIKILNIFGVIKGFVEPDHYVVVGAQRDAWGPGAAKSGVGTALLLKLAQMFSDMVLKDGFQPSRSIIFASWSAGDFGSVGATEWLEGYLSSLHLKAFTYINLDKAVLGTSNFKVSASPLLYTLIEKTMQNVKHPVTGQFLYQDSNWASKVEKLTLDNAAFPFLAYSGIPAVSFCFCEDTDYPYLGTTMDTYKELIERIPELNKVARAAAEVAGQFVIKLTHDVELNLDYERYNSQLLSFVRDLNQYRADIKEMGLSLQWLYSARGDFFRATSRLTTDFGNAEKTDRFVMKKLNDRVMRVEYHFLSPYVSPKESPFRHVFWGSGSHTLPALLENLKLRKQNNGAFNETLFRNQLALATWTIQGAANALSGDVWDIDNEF
Description: (§1) A total of 1536 anti-TfR hybridoma supernatants were initially screened for their ability to differentially bind CHO cells overexpressing human or mouse TfR cells compared to CHO parental cells by FACS. Overexpressing cells were harvested, washed and labeled with Pacific Blue, FITC and Pacific Orange dyes (ThermoFisher) to create uniquely barcoded cell populations. Barcoded cells (5×10⁴ of each cell population) were aliquoted into 96-well U-bottom plates and incubated with 50 μl of hybridoma cell culture supernatant or […] of commercially available purified mouse anti-human TfR monoclonal antibody (Sigma Aldrich, Cat #SAB4700515) and rat anti-mouse TfR antibody (Invitrogen, Waltham, MA, Cat #R17217) on ice for 30 minutes. After this primary incubation, the supernatants were removed via centrifugation, the cells were washed twice with 175 μl of ice-cold FACS buffer (PBS+1% FBS+2 mM EDTA), and the cells were then further incubated on ice for 20 minutes with anti-mouse IgG Fc-allophycocyanin (APC) or anti-rat IgG Fc-APC (Jackson Labs, Cat #115-136-071 and Cat #112-136-071, respectively) (diluted 1:1000). Following this secondary antibody incubation, the cells were again washed twice with ice-cold FACS buffer and resuspended in a final volume of 50 μl of FACS buffer. Binding intensity on cells was analyzed using the FACS Canto system (BD Biosciences), and the ratio of APC Mean Fluorescence Intensity (MFI) on each barcoded cell population was determined for each anti-TfR hybridoma supernatant tested.

[3] = target: T3, Full length Mouse TfR on CHO cells (mouse, UniProt Q62351 1-763); assay: FACS MFI, supernatant
T3 construct: also called CHO + muTfR
T3 sequence (Q62351 whole entry): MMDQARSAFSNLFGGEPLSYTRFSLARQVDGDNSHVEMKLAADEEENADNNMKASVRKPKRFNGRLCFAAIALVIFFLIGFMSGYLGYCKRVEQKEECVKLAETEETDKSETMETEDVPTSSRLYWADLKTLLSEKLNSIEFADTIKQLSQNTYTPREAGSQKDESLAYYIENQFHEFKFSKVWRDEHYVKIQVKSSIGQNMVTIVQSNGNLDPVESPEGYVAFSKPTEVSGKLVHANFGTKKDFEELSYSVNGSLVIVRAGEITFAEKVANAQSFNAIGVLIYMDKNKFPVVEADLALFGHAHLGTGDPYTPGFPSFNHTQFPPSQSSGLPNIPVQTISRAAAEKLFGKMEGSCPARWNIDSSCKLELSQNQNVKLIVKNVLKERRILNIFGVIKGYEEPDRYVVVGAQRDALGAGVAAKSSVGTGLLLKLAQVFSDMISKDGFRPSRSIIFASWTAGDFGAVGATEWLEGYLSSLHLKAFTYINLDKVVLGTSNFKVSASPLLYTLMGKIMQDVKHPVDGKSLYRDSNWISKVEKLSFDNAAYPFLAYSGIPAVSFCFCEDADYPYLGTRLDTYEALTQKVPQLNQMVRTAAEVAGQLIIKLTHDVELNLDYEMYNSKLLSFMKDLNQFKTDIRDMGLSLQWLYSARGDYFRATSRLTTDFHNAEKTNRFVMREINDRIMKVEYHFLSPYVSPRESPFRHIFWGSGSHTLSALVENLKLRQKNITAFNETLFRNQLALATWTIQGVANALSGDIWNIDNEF
Description: as §1

[4] = target: T3, Full length Mouse TfR on CHO cells; assay: FACS, CHO+muTfR
Description: as §1

B1: TfR11 (mouse hybridoma antibody) (antibody, V domains shown)
VH: EVQLQQSGTVLARPGASVKMSCKASGYSFTSYWMHWVKQRPGQGLEWIGAIFPGNIDTIYNQKFKDKAKLTAVTSASTAYMELSSLTNEDSAVYFCTRLYYDYVWGAGTTVTVSS
VL: DIKMTQSPSSMYASLGERVTLTCKASQDINSYLSWFQQKPGKSPKTLIYHVNRLVDGVPSRFSGSGSGQDYSLTISSLEYEDMGIYYCLQYDEFPYTFGGGTKLEIK
notes: mouse IgG in hybridoma supernatant
**Q.** B1 was tested. Which “ratio over irrelevant protein” value [1] did it give?
**A.** 39 fold

**Q.** What about the “fold over parental (CHO WT)” value [2] of the same binder?
**A.** 290 fold

**Q.** What about the “fold over parental (CHO WT)” value [3] of the same binder?
**A.** 1 fold

**Q.** Does B1 bind [4]?
**A.** no binding

B2: TfR13 (mouse hybridoma antibody) (antibody, V domains shown)
VH: DVKLVESGGGLVKPGGSLKLSCAASGFTFSSYTMSWVRQTPEKRLEWVATISSGGSYTYFPDSVKGRFTISRDNAKNTLYLQMSSLKSEDTAIYYCTRAHYYAYDYWGQGTTLTVSS
VL: DILLTQSPAILSVSPGERVSFSCRASQSIGTSIHWYQQRTNGSPRLLIKYASGSISGIPSRFSGSGSGTDFTLSINSVESEDIADYYCQQSNSWPTSTFGAGTKLELK
notes: as for B1
**Q.** What does the source list for B2?
**A.** ratio over irrelevant protein [1]: 22 fold; fold over parental (CHO WT) [2]: 392 fold; fold over parental (CHO WT) [3]: 1 fold; binding result [4]: no binding

B3: TfR15 (mouse hybridoma antibody) (antibody, V domains shown)
VH: QVQLQQPGSELVRPGASVKLSCKASGYTFTSYWMHWVKQRPGQGLEWIGNIYPGSGSSNYDEKFKSKATLTVDTSSSTAYMQLNSLTSEDSAVYYCTRSSYYGNFDTMDNWGQGTSVTVSS
VL: QIVLTQSPAIMSASPGEKVTMTCSASSSIRYMNWYQQKPVTSPKRWIYDTSTLASGVPARFSGSGSGTSYSLTISSMEAEDAATYYCHQRSSYPWTFGGGTKLEIK
notes: as for B1
**Q.** Which results are given for B3?
**A.** ratio over irrelevant protein [1]: 34 fold; fold over parental (CHO WT) [2]: 119 fold; fold over parental (CHO WT) [3]: 1 fold; binding result [4]: no binding

B4: TfR27 (mouse hybridoma antibody) (antibody, V domains shown)
VH: QVQLQQPGSELVRPGASVKLSCKASGYTFTSYWMHWVKQRPGQGLEWIGNIYPGTGSTNYDEKFKSKATLTVDTSSSTAYMQLSSLTSEDSAVYYCTRSSYYGNFDTMDYWGQGTSVTVSS
VL: QIFLTQSPAIMSASPGERVTMTCSASSSIRYMNWYQQKPGTSPKRWIYDTSELASGVPARFTGSGSGTSYSLTISSMEAEDAATYYCHQRSGYPWTFGGGTKLEIK
notes: as for B1
**Q.** Which “ratio over irrelevant protein” value [1] does the source give for B4 here?
**A.** 34 fold

**Q.** And the “fold over parental (CHO WT)” value [2]?
**A.** 279 fold

**Q.** And the “fold over parental (CHO WT)” value [3]?
**A.** 1 fold

**Q.** Does B4 bind [4]?
**A.** no binding

B5: TfR16 (mouse hybridoma antibody) (antibody, V domains shown)
VH: EVQLQQSGTVLARPGASVKMSCKTSGYSFSSYWMHWVKQRPGQGLEWIGTIYPGNSDTIYNQNFKGKAKLTAVTSASTAYMELSSLTNEDSAVYYCSTIYYFSNWGQGTTLTVSS
VL: DIKMTQSPSPMFASLGERVTITCKASQDINSYLSWFQQKPGKSPKTLIYRANRLLDGVPSRFSGSGSGQDYSLTISSLDYEDVGIYYCLQYDVFPYTFGGGTKLEIK
notes: as for B1
**Q.** Which results are given for B5?
**A.** ratio over irrelevant protein [1]: 18 fold; fold over parental (CHO WT) [2]: 534 fold; fold over parental (CHO WT) [3]: 1 fold; binding result [4]: no binding

B6: TfR22 (mouse hybridoma antibody) (antibody, V domains shown)
VH: DVQLQESGPGLVKPSQSLSLTCTVTGYSITSDYAWNWIRQFPGNKLEWMGYISYSGSTRYNPSLKSRISITRDTSKNQFFLQLNSVTTEDTATYYCTSWGYRYLEDYWGQGTSVTVSA
VL: QIVLTQSPAIMSASPGERVTMTCSASSSISSMHWYQQKPGTSPKKWIYDTSKLASGVPARFSGSGSGTSYSLTISSMEAEDAATYYCHQRSSYPWTFGGGTKLEIK
notes: as for B1
**Q.** Which results are given for B6?
**A.** ratio over irrelevant protein [1]: 33 fold; fold over parental (CHO WT) [2]: 290 fold; fold over parental (CHO WT) [3]: 1 fold; binding result [4]: no binding

B7: TfR17 (mouse hybridoma antibody) (antibody, V domains shown)
VH: DVQLQESGPGLVKPSQSLSLTCTVTGYSITSDYAWNWIRQFPGNKLEWMGYISYSGSTSYNPSLKSRISITRDTSKNQFFLQLNSVTTEDTATYYCASWGYRYLEDYWGQGTSVTVSS
VL: QIVLTQSPAIMSASPGEKVTMTCSASSSISSMHWYQQKPGTSPKRWISDTSKLASGIPARFSGSGSGTSYSLTISSMAAEDAAAYYCHQRSSYPWTFGGGTKLEIK
notes: as for B1
**Q.** Which results are given for B7?
**A.** ratio over irrelevant protein [1]: 26 fold; fold over parental (CHO WT) [2]: 73 fold; fold over parental (CHO WT) [3]: 1 fold; binding result [4]: no binding
